T1: AR-DBD (yeast 2-hybrid bait) (UniProt P10275 506-636)
T1 sequence (looked up): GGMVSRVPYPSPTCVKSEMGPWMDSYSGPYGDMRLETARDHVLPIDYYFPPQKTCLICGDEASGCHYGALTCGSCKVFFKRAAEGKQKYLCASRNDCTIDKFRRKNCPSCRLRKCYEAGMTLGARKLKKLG

T2: AR-DBD + LBD (yeast 2-hybrid bait) (UniProt P10275 506-920)
T2 sequence (looked up): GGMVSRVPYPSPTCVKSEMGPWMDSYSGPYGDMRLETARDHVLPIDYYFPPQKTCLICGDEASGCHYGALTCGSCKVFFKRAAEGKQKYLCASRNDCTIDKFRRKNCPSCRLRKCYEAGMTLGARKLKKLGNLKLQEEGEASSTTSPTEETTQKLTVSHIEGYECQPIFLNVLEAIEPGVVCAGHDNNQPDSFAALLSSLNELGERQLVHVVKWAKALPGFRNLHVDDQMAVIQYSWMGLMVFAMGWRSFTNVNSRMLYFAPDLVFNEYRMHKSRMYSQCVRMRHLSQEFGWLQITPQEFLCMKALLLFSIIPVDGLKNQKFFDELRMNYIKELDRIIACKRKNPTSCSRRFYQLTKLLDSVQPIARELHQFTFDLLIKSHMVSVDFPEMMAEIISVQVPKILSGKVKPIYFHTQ

T3: AR-AT (yeast 2-hybrid bait) (UniProt P10275 1-505)
T3 sequence (looked up): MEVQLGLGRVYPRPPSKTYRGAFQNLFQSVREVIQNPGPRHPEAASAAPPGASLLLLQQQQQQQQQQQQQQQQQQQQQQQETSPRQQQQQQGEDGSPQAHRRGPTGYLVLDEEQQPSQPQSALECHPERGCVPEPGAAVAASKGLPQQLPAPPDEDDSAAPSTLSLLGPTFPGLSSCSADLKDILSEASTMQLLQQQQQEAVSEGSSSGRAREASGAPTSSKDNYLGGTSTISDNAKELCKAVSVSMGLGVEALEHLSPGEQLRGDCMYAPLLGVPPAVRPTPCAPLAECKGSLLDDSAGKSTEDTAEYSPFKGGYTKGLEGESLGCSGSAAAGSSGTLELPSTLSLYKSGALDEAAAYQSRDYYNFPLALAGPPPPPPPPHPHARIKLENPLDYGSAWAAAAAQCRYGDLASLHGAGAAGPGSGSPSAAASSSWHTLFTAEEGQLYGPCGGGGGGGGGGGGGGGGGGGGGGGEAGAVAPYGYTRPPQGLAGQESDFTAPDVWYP

B1: pACT2-PAK (yeast 2-hybrid prey) (other, not shown: large carriers)
chain: LKRRLFRSMFLSTAATAPPSSSKPGPPPQSKPNSSFRPPQKDNPPSLVAKAQSLPSDQPVGTFSPLTTSDTSSPQKSLRTAPATGQLPGRSSPAGSPRTWHAQISTSNLYLPQDPTVAKGALAGEDTGVVTHEQFKAALRMVVDQGDPRLLLDSYVKIGEGSTGIVCLAREKHSGRQVAVKMMDLRKQQRRELLFNEVVIMRDYQHFNVVEMYKNYLVGEELWVLMEFLQGGALTDIVSQVRLNEEQIATVCEAVLQALAYLHAQGVIHRDIKSDSILLTLDGRVKLSDFGFCAQISKDVPKRKSLVGTPYWMAPEVISRSLYATEVDIWSLGIMVIEMVDGEPPYFSDSPVQAMKRLRDSPPPKLKNSHKVSPVLRDFLERMLVRDPQERATAQELLDHPFLLQTGLPECLVPLIQLYRKQTSTC
B2: pGAD424-GRIP1 (yeast 2-hybrid prey, GRIP1 amino acids 730-1121) (other, UniProt Q61026 730-1121, looked up, not shown: large carriers)
chain: VKQEPASPKKKENALLRYLLDKDDTKDIGLPEITPKLERLDSKTDPASNTKLIAMKTVKEEVSFEPSDQPGSELDNLEEILDDLQNSQLPQLFPDTRPGAPTGSVDKQAIINDLMQLTADSSPVPPAGAQKAALRMSQSTFNNPRPGQLGRLLPNQNLPLDITLQSPTGAGPFPPIRNSSPYSVIPQPGMMGNQGMLGSQGNLGNNSTGMIGSSTSRPSMPSGEWAPQSPAVRVTCAATTGAMNRPVQGGMIRNPTASIPMRANSQPGQRQMLQSQVMNIGPSELEMNMGGPQYNQQQAPPNQTAPWPESILPIDQASFASQNRQPFGSSPDDLLCPHPAAESPSDEGALLDQLYLALRNFDGLEEIDRALGIPELVSQSQAVDAEQFSSQE

Legend:
Experiment in all cases: cell-based or functional assay
[1] = molecular target: T1, AR-DBD (yeast 2-hybrid bait)
[2] = molecular target: T2, AR-DBD + LBD (yeast 2-hybrid bait)
[3] = molecular target: pAS2 vector (empty bait control)
[4] = molecular target: cortactin (yeast 2-hybrid bait)
[5] = molecular target: T3, AR-AT (yeast 2-hybrid bait)

Row | Binder | Fold induction of β-galactosidase by DHT (yeast 2-hybrid) [1] [fold] | Fold induction of β-galactosidase by DHT (yeast 2-hybrid) [2] [fold] | Fold induction of β-galactosidase by DHT (yeast 2-hybrid) [3] [fold] | Fold induction of β-galactosidase by DHT (yeast 2-hybrid) [4] [fold] | Fold induction of β-galactosidase by DHT (yeast 2-hybrid) [5] [fold]
1 | B1 | 0.9 | 27 | 1.2 | 1 | 1.1
2 | B2 |  | 5.7 |  |  | 

— patent publication US20030166623A1 (BETH ISRAEL DEACONESS MEDICAL CENTER, published 2003)
